Molecular target: BG505 SOSIP.664 gp140 trimer (HIV-1 (strain BG505)) (UniProt Q2N0S6)
Experiment: negative-stain EM

CH235 Fab
stoichiometry N (Fabs per trimer): 1
